Test results reported in PMC5490261, “The structural and functional characterization of human RecQ4 reveals insights into its helicase mechanism”.
Substitutions are numbered along the chain they refer to.

Legend:
Assay in all cases: fluorescence polarization; WT-like affinity; figure values not assignable from text layer; 20 mM HEPES pH 8.0, 10 mM NaCl, 5% glycerol, 1 mM MgCl2, 0.5 mM TCEP, 0.5 nM Cy3-ssDNA; temperature not stated
Conditions in all cases: protein: recombinant; tags: Trx-His6 removed by 3C protease; label: 5' Cy3
[1] = biological target: T1, RecQ4 427-1208 R618L (Homo sapiens, UniProt O94761 427-1208, R618L)
T1 sequence: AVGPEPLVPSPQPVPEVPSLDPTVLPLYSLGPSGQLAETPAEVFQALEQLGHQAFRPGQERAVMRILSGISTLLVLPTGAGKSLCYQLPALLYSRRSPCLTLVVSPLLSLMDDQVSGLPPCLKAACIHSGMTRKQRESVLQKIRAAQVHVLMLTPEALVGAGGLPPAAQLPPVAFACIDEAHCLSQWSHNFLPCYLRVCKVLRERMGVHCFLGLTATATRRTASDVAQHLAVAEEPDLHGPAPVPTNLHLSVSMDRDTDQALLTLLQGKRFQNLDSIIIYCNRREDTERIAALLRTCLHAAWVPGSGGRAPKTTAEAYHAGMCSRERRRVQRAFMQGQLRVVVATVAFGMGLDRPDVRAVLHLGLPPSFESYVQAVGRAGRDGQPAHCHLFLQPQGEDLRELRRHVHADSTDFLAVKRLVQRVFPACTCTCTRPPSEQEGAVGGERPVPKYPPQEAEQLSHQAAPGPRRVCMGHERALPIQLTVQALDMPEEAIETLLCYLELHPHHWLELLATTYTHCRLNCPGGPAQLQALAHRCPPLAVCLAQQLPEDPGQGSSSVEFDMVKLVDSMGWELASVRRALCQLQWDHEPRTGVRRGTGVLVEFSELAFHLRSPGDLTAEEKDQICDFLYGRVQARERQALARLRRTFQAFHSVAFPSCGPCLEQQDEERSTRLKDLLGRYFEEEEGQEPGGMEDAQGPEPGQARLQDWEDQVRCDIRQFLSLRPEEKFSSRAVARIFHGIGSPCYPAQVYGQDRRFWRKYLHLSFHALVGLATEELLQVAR

[2] = biological target: T2, RecQ4 427-1208 W613L (Homo sapiens, UniProt O94761 427-1208, W613L)
T2 sequence: T1 sequence with W187L, L192R

[3] = biological target: T3, RecQ4 427-1208 F617L (Homo sapiens, UniProt O94761 427-1208, F617L)
T3 sequence: T1 sequence with F191L, L192R

Measured: binding result

CCATTCCACCCTCTATTTTTTTTTTTTTTT (ssDNA) [T3-Cy3]
binds: all assays above
